These results are taken from US6420518.

Positions of bridges follow the written chain, without caps; N, C: chain ends. Non-standard residues stand in square brackets, D forms with d. No end group written: not given here. 1Nal = N[C@@H](Cc1cccc2ccccc12)C(=O)O; Nle = CCCC[C@H](N)C(=O)O Bounds are passed on as bounds.

T1: IGFBP-1 (UniProt P08833 26-259)
T1 construct: in kinetics immobilised on a CM chip by EDC/NHS; biotinylated in the phage selection
T1 sequence (looked up): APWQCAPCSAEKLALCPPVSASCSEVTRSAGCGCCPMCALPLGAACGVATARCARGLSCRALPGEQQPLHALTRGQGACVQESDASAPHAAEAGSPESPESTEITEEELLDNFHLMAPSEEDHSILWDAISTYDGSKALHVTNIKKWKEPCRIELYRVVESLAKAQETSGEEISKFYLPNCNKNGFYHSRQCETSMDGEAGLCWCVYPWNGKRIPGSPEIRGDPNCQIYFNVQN

B1: bp1-23 (peptide)
peptide: CRAGPLQ[1Nal]LCEKYF
modifications: disulfide 1-10
notes: also called W8(Nal(1)) variant of bp1-16
B2: (i+7)C (peptide)
peptide: Ac-PLEWLAEKYEG
modifications: linker 3-10 via 1,5‑diaminopentane
notes: also called locked-helix variant of bp1-01
B3: (i+7)A (peptide)
peptide: Ac-CRAGPLQELCEKYAE
modifications: disulfide 1-10 (inferred); linker 8-15 via 1,5‑diaminopentane
notes: W8 and G15 replaced by the cross-linking Glu residues, F14 replaced by Ala; also called locked-helix variant of bp1-01
B4: (i+7)B (peptide)
peptide: Ac-LEWLAEKYEG
modifications: linker 2-9 via 1,5‑diaminopentane
notes: as for B2
B5: (i+8)B (peptide)
peptide: Ac-RPLEWLAEKYFE
modifications: linker 4-12 via 1,5‑diaminopentane
notes: as for B2
B6: (i+7)D (peptide)
peptide: Ac-RAGPLEWLAEKYEG
modifications: linker 6-13 via 1,5‑diaminopentane
notes: as for B2
B7: (i+8)C (peptide)
peptide: Ac-RAGPLEWLAEKYFE
modifications: linker 6-14 via 1,5‑diaminopentane
notes: as for B2
B8: bp1-625 (peptide)
peptide: GQQSCAAGPLQWLCEHYFSTYGR
modifications: disulfide 5-14
notes: bp1-40 with R2A, K12H and an added C-terminal GlyArg

One experiment concerns the target T1, IGFBP-1. Nature of the experiment: BIAcore inhibition of IGFBP-1 binding to IGF-I. Background: Surface plasmon resonance follows binding to a sensor surface in real time, without labels.
For CRAGPLQRLCEKYF (disulfide 1-10, also called W8R variant of bp1-16) [bp1-22], the “Fold potency reduction IC50(mut)/IC50(bp1-16)” value stood at 3.3 fold. On the same count and under the same terms, as for B1, the figure is 4.8 fold.

The next experiment concerns the target T1, IGFBP-1. Kind of experiment: BIAcore inhibition of the interaction of IGFBP-1 with IGF-1. How it is done: Peptides were assayed in a BIAcore1 assay as described in WO 98/45427, supra.
With B2, the “Fold potency reduction vs bp1-01” value worked out at 20 fold. In the case of B3, the “Fold potency reduction vs bp1-01” value was determined as 40 fold.

On to B4, for which the “Fold potency reduction vs bp1-01” value is over 360 fold. The same measure, in the same setting: as for B5, the figure is 7.7 fold; as for B6, 7.7 fold. On the same count and under the same terms, the figure for B7 is 5.9 fold.

A further experiment has as its target T1, IGFBP-1. Kind of experiment: ELISA or BIAcore inhibition of IGFBP-1 binding to IGF-I; reference peptide.
As to CRAGPLQWLCEKYF (disulfide 1-10, Synthetic peptide) [bp1-16], the “Fold potency reduction IC50(mut)/IC50(bp1-16)” value came to 1 fold.

A further experiment deals with T1, IGFBP-1. Kind of experiment: BIAcore inhibition of the interaction of IGFBP-1 with IGF-1; reference peptide.
Take CRAGPLQWLCEKYFG (disulfide 1-10) [bp1-01]: the “Fold potency reduction IC50(bp1-01)/IC50(mut)” value worked out at 1 fold.

The target of the next experiment is T1, IGFBP-1. Nature of the experiment: BIAcore inhibition assay, 9-10 nM IGFBP-1, immobilized IGF-1.
B8: the “fold improved potency over bp1-01” value was about 20 fold.

The target in a further experiment is T1, IGFBP-1. Nature of the experiment: ELISA inhibition of IGFBP-1 binding to IGF-I. (An ELISA detects its analyte on a solid surface through an enzyme-linked reagent.)
On to CRAGPLQWRCEKYF (disulfide 1-10, also called L9R variant of bp1-16) [bp1-26], for which the “Fold potency reduction IC50(mut)/IC50(bp1-16)” value is over 570 fold. Still for that read-out and setting: the figure for CRAGPLQHLCEKYF (disulfide 1-10, also called W8H variant of bp1-16) [bp1-24] is 7.5 fold; for CRAGRLQWLCEKYF (disulfide 1-10, also called P5R variant of bp1-16) [bp1-31] it is 2 fold. The same measure, in the same setting: as for CRAGPRQWLCEKYF (disulfide 1-10, also called L6R variant of bp1-16) [bp1-32], the figure is over 1000 fold; as for CRAGNLQWLCEKYF (disulfide 1-10, also called P5N variant of bp1-16) [bp1-34], 3.1 fold. Consider CRAGALQWLCEKYF (disulfide 1-10, also called P5A variant of bp1-16) [bp1-30], for which the “Fold potency reduction IC50(mut)/IC50(bp1-16)” value turned out to be 1.5 fold.

As to CRAAPLQWLCEKYF (disulfide 1-10, also called G4A variant of bp1-16) [bp1-29], the “Fold potency reduction IC50(mut)/IC50(bp1-16)” value was found to be 50 fold.

In the case of CRAGP[Nle]QWLCEKYF (disulfide 1-10, also called L6(Nle) variant of bp1-16) [bp1-36], the “Fold potency reduction IC50(mut)/IC50(bp1-16)” value came out at 6.9 fold. The same measure, in the same setting: the figure for CRAGPLQW[Nle]CEKYF (disulfide 1-10, also called L9(Nle) variant of bp1-16) [bp1-37] is 1.7 fold.
